The source of these data is patent US11833164B2, “Methods of treating Fabry disease in patients having a mutation in the GLA gene” (Amicus Therapeutics, Inc., priority 2019, dated 2023).

For assay [1], the system named is mutant form of α-Gal A expressed in HEK-293 cells. The assay is described as follows: HEK assay (GLP HEK / Migalastat Amenability Assay): α-Gal A activity in lysates of transiently transfected HEK-293 cells incubated with or without 10 μM migalastat. The assay is classed as cell-based, human. Put shortly:
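HEK-293 cells transiently transfected with mutant α-Gal A and incubated with or without 10 μM migalastat; lysate activity given as nmol free 4-MU released per mg protein per hour. Values are mean±SEM.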

Assay [2] has as its system active site of wild-type α-Gal A and specific mutant forms of α-Gal A. The following applies: selective and reversible binding; cited from earlier work.
[3] abbreviates: 10 μM migalastat versus baseline.

Turning to `OC[C@H]1NC[C@H](O)[C@@H](O)[C@H]1O` [migalastat, (2R,3S,4R,5S)-2-(hydroxymethyl) piperdine-3,4,5-triol, reference compound], in assay [1] (novel α-Gal A mutations listed in Table 2, HEK-293 lysates, 10 μM migalastat, 5 days), the “in vitro response to incubation with migalastat (amenability criteria)” value was “met amenability criteria”. The “binding to the active site of α-Gal A” value in assay [2] is recorded as “high affinity”.

B1: A377S (protein)
chain: MQLRNPELHLGCALALRFLALVSWDIPGARALDNGLARTPTMGWLHWERFMCNLDCQEEPDSCISEKLFMEMAELMVSEGWKDAGYEYLCIDDCWMAPQRDSEGRLQADPQRFPHGIRQLANYVHSKGLKLGIYADVGNKTCAGFPGSFGYYDIDAQTFADWGVDLLKFDGCYCDSLENLADGYKHMSLALNRTGRSIVYSCEWPLYMWPFQKPNYTEIRQYCNHWRNFADIDDSWKSIKSILDWTSFNQERIVDVAGPGGWNDPDMLVIGNFGLSWNQQVTQMALWAIMAAPLFMSNDLRHISPQAKALLQDKDVIAINQDPLGKQGYQLRQGDNFEVWERPLSGLAWAVAMINRQEIGGPRSYTIAVASLGKGVSCNPACFITQLLPVKRKLGFYEWTSRLRSHINPTGTVLLQLENTMQMSLKDLL
Consider B1, for which, in assay [1] (setting [3]), the “Absolute increase (% WT)” value worked out at 13.7 % WT and the Relative increase is listed as 1.3. Moreover, the “Baseline α-Gal A activity (% WT)” value in assay [1] (absence of migalastat, percentage of baseline wild-type α-Gal A activity, mean ± SEM) amounted to 48.1 ± 2.3 % WT. Besides, the “Baseline α-Gal A activity” value in assay [1] (lysates of HEK-293 cells transiently transfected with the mutant form, incubated 5 days in absence of migalastat, mean ± SEM) stood at 17737 ± 860 nmol/mg/h. Besides, the “10 μM migalastat α-Gal A activity” value in assay [1] (lysates of HEK-293 cells transiently transfected with the mutant form, incubated 5 days with 10 μM migalastat, mean ± SEM) was 22793 ± 999 nmol/mg/h. Also, in assay [1] (with 10 μM migalastat, 5 days, percentage of baseline wild-type α-Gal A activity, mean ± SEM), the “10 μM migalastat α-Gal A activity (% WT)” value was 61.8 ± 2.7 % WT.
